# Results from FireProtDB (doi:10.1021/bi00485a005).
# Settings: Aspergillus oryzae (strain ATCC 42149 / RIB 40), 25 °C, Urea, Fluorescence, NaCl 0.2 M, whole UniProt chain shown
protein,measurement,setting,value
"Guanyl-specific ribonuclease T1 wild type, P00651 (protein) MMYSKLLTLTTLLLPTALALPSLVERACDYTCGSNCYSSSDVSTAQAAGYQLHEDGETVGSNSYPHKYNNYEGFDFSVSSPYYEWPILSSGDVYSGGSPGADRVVFNENNQLAGVITHTGASGNNFVECT",denaturant m value,"pH 6.02, MES 30 mM",1.25 kcal/mol/M
same,denaturant midpoint (higher = more stable),"pH 6.02, MES 30 mM",6.58 M
same,unfolding free energy,"pH 6.02, MES 30 mM",8.24 kcal/mol
same,denaturant m value,"pH 8.02, HEPPSO 30 mM",1.35 kcal/mol/M
same,denaturant midpoint (higher = more stable),"pH 8.02, HEPPSO 30 mM",4.38 M
same,unfolding free energy,"pH 8.02, HEPPSO 30 mM",5.92 kcal/mol
